# Tests used:
# [1] = target: M2 (amino acids 42–141) (Streptococcus pyogenes (group A Streptococcus), strain M2 (AP2)); assay: crystal structure
# [2] = target: M22 (42–120) (Streptococcus pyogenes (group A Streptococcus), strain M22 (Sir22)); assay: crystal structure
Substance,stoichiometry N [1],stoichiometry N [2]
M2 (amino acids 42–141) (domain or fragment),2,
M22 (42–120) (domain or fragment),,2
